T1: RecB subunit of E. coli RecBCD (134 kDa) (E. coli, UniProt P08394 1-1180)
T1 sequence (looked up): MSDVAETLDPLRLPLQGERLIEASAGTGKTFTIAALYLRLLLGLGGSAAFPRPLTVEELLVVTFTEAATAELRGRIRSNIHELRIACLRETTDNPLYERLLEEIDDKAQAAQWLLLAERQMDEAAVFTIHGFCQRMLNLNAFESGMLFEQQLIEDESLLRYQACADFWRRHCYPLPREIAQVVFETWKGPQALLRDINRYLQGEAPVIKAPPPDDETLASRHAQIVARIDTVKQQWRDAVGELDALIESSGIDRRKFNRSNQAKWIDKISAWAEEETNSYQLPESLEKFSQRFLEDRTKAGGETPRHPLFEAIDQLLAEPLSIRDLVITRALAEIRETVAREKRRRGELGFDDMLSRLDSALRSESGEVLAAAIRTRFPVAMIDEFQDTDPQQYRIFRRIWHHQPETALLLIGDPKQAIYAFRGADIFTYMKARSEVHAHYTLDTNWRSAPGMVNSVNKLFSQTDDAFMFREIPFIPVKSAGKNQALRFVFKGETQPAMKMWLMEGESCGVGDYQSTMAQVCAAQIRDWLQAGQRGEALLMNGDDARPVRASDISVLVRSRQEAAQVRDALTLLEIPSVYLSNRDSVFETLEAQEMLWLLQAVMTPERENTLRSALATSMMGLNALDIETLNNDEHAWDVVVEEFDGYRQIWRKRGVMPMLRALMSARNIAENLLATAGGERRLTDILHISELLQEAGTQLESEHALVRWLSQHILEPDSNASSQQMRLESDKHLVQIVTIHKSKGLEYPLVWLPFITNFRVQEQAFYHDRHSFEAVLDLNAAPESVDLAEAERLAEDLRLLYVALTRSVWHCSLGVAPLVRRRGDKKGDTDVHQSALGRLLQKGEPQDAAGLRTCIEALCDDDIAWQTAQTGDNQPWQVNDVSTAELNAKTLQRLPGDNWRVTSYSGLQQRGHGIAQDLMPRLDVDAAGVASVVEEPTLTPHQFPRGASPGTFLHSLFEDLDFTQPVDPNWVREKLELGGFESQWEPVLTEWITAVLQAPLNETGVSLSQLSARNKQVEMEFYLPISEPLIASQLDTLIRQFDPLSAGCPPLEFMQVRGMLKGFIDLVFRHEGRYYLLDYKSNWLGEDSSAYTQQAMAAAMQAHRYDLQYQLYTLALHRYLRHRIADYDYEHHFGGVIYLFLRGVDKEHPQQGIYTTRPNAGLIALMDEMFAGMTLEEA

B1: RecD subunit of E. coli RecBCD (enzyme, UniProt P04993 1-608, looked up)
chain: MKLQKQLLEAVEHKQLRPLDVQFALTVAGDEHPAVTLAAALLSHDAGEGHVCLPLSRLENNEASHPLLATCVSEIGELQNWEECLLASQAVSRGDEPTPMILCGDRLYLNRMWCNERTVARFFNEVNHAIEVDEALLAQTLDKLFPVSDEINWQKVAAAVALTRRISVISGGPGTGKTTTVAKLLAALIQMADGERCRIRLAAPTGKAAARLTESLGKALRQLPLTDEQKKRIPEDASTLHRLLGAQPGSQRLRHHAGNPLHLDVLVVDEASMIDLPMMSRLIDALPDHARVIFLGDRDQLASVEAGAVLGDICAYANAGFTAERARQLSRLTGTHVPAGTGTEAASLRDSLCLLQKSYRFGSDSGIGQLAAAINRGDKTAVKTVFQQDFTDIEKRLLQSGEDYIAMLEEALAGYGRYLDLLQARAEPDLIIQAFNEYQLLCALREGPFGVAGLNERIEQFMQQKRKIHRHPHSRWYEGRPVMIARNDSALGLFNGDIGIALDRGQGTRVWFAMPDGNIKSVQPSRLPEHETTWAMTVHKSQGSEFDHAALILPSQRTPVVTRELVYTAVTRARRRLSLYADERILSAAIATRTERRSGLAALFSSRE
B2: RecC subunit of E. coli RecBCD (natural protein, UniProt P07648 1-1122, looked up)
chain: MLRVYHSNRLDVLEALMEFIVERERLDDPFEPEMILVQSTGMAQWLQMTLSQKFGIAANIDFPLPASFIWDMFVRVLPEIPKESAFNKQSMSWKLMTLLPQLLEREDFTLLRHYLTDDSDKRKLFQLSSKAADLFDQYLVYRPDWLAQWETGHLVEGLGEAQAWQAPLWKALVEYTHQLGQPRWHRANLYQRFIETLESATTCPPGLPSRVFICGISALPPVYLQALQALGKHIEIHLLFTNPCRYYWGDIKDPAYLAKLLTRQRRHSFEDRELPLFRDSENAGQLFNSDGEQDVGNPLLASWGKLGRDYIYLLSDLESSQELDAFVDVTPDNLLHNIQSDILELENRAVAGVNIEEFSRSDNKRPLDPLDSSITFHVCHSPQREVEVLHDRLLAMLEEDPTLTPRDIIVMVADIDSYSPFIQAVFGSAPADRYLPYAISDRRARQSHPVLEAFISLLSLPDSRFVSEDVLALLDVPVLAARFDITEEGLRYLRQWVNESGIRWGIDDDNVRELELPATGQHTWRFGLTRMLLGYAMESAQGEWQSVLPYDESSGLIAELVGHLASLLMQLNIWRRGLAQERPLEEWLPVCRDMLNAFFLPDAETEAAMTLIEQQWQAIIAEGLGAQYGDAVPLSLLRDELAQRLDQERISQRFLAGPVNICTLMPMRSIPFKVVCLLGMNDGVYPRQLAPLGFDLMSQKPKRGDRSRRDDDRYLFLEALISAQQKLYISYIGRSIQDNSERFPSVLVQELIDYIGQSHYLPGDEALNCDESEARVKAHLTCLHTRMPFDPQNYQPGERQSYAREWLPAASQAGKAHSEFVQPLPFTLPETVPLETLQRFWAHPVRAFFQMRLQVNFRTEDSEIPDTEPFILEGLSRYQINQQLLNALVEQDDAERLFRRFRAAGDLPYGAFGEIFWETQCQEMQQLADRVIACRQPGQSMEIDLACNGVQITGWLPQVQPDGLLRWRPSLLSVAQGMQLWLEHLVYCASGGNGESRLFLRKDGEWRFPPLAAEQALHYLSQLIEGYREGMSAPLLVLPESGGAWLKTCYDAQNDAMLDDDSTLQKARTKFLQAYEGNMMVRGEGDDIWYQRLWRQLTPETMEAIVEQSQRFLLPLFRFNQS

Experiment [1] deals with T1, RecB subunit of E. coli RecBCD (134 kDa). In words: AUC.
Experiment [2] has as its target B2. The experiment in a line: AUC.

On to B1, for which the binding result in experiment [1] and in experiment [2] was “binds” each time.
Take B2: the binding result in experiment [1] is listed as “binds”.

For the origin of these results see publication PMC8996488 (Journal of molecular biology, 2021).
